Laboratory results published in US20050074840A1 (published 2005).
Where a chain is given by its changes, count along the chain named. Numbers in names are those of the source.

B1: TNFrED H34P (receptor)
chain: DSVCPQGKYIHPQNNSICCTKCPKGTYLYNDCPGPGQDTDCRECESGSFTASENHLRHCLSCSKCRKEMGQVEISSCTVDRDTVCGCRKNQYRHYWSENLFQCFNCSLCLNGTVHLSCQEKQNTVCTCHAGFFLRENECVSCSNCKKSLECTKLCLPQIEN
notes: Secreted from HEK293-EBNA cells, conditioned medium
B2: TNFrED H34P+S57I+S87P (receptor)
chain: B1 chain with S46I, S76P
notes: Secreted from HEK293-EBNA cells, conditioned medium; also called H34P + S87P + S571
B3: TNFrED S57I (receptor)
chain: B1 chain with P23H, S46I
notes: Secreted from HEK293-EBNA cells, conditioned medium; also called S571
B4: TNFrED H34P+S57I (receptor)
chain: B1 chain with S46I
notes: Secreted from HEK293-EBNA cells, conditioned medium; also called H34P + S571
B5: TNFrED H34P+S87P (receptor)
chain: B1 chain with S76P
notes: as for B1
B6: TNFrED S87P (receptor)
chain: B1 chain with P23H, S76P
notes: as for B1

biological target: T1, human TNF-alpha (hTNF-alpha) (human, UniProt P01375 77-233); assay: SPR (BIAcore), TNFrED captured on BAF225 anti-TNFrED surface, TNF-alpha injected at 1-100 nM, global 1:1 fit
T1 construct: also called biotinylated hTNF-; [125I]TNF-
Excerpt: Conditioned media from transient transfections of HEK293-EBNA cells were concentrated with Centricon 10s and the amount of TNFrED protein was quantitated with the R & D Systems ELISA for hTNF R-1. […] Conditioned medium (no TNFrED) and HBS were used as negative controls.

Binder | Kd [nM] | koff [s⁻¹] | kon [M⁻¹ s⁻¹]
B1 | 0.5 | 0.0009 | 1.9e+06
B2 | 0.6 | 0.001 | 1.8e+06
B3 | 0.5 | 0.0009 | 1.9e+06
B4 | 0.6 | 0.0012 | 1.9e+06
B5 | 0.6 | 0.0012 | 1.9e+06
B6 | 0.6 | 0.0011 | 2e+06
